These results are taken from patent US20100330095A1 (U3 PHARMA, published 2010).

Test [1] concerns the target T1, human Mer (human, UniProt Q12866 21-999).
T1 construct: whole, on cells; Transiently expressed on HEK293T cells; also called hMer
T1 sequence (looked up): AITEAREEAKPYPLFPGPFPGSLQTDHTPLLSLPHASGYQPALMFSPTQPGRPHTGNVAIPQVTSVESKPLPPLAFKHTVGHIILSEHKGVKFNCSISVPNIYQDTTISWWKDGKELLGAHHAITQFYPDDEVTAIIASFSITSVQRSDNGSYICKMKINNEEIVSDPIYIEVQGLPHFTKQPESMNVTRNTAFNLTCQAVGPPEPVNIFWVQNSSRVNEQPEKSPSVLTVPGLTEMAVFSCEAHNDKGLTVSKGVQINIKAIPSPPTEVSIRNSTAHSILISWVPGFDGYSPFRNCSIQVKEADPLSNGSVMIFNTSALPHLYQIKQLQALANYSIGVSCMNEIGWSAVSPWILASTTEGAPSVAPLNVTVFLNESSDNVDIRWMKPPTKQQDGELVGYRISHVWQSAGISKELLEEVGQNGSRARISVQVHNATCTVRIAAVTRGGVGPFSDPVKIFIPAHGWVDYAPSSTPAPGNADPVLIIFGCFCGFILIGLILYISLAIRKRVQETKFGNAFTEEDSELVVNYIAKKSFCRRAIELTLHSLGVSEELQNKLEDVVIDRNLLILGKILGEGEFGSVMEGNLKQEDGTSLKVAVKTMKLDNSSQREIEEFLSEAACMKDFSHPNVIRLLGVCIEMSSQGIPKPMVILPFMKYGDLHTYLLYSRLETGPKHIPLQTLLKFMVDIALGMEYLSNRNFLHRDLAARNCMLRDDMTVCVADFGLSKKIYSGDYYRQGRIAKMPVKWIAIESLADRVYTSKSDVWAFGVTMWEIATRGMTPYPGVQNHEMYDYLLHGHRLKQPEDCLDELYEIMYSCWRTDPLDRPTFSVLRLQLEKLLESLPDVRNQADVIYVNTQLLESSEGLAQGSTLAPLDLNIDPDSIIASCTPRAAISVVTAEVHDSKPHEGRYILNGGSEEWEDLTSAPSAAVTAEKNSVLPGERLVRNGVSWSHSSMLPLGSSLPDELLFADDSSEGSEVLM
Description: flow cytometry, transiently transfected HEK293T cells. As to the method: FIG. 3. Flow cytometry analysis of cross-reactivity of rat-anti AXL antibodies with mouse and cynomolgus monkey AXL as well as human Mer and Sky. HEK293T fibroblasts were transiently transfected with pcDNA3, pcDNA3-hAXL, pcDNA3 mAXL, pcDNA3-cyAXL, pcDNA3-hMer, or pcDNA3-hSky. […] See text for details.
For FACS analysis, 2×10⁵ cells were harvested with 10 mM EDTA in PBS, washed once with FACS buffer (PBS, 3% FCS, 0.4% azide) and seeded on a 96 well round bottom plate. […] After incubation on ice for 1 h, cells were washed twice with chilled FACS buffer and resuspended with PE-conjugated donkey anti-rat (Jackson) secondary antibody diluted 1:50 in FACS buffer (100 μl/well) or PE-conjugated donkey anti-mouse secondary antibody for control. Protected from light, cells were incubated on ice for 30 min, washed twice with FACS buffer and analyzed using an Epics XL-MCL flow cytometer (Beckman Coulter).

The target in test [2] is T2, human receptor tyrosine kinase AXL transcript variant 1 (human, UniProt P30530 26-894).
T2 construct: Overexpressed on RatI-AXL cl.2 and NIH3T3-AXL cl.7 fibroblasts (pLXSN-hAXL); endogenous on human cancer cell lines and HUVEC in the functional assays; also called hAXL; human AXL
T2 sequence: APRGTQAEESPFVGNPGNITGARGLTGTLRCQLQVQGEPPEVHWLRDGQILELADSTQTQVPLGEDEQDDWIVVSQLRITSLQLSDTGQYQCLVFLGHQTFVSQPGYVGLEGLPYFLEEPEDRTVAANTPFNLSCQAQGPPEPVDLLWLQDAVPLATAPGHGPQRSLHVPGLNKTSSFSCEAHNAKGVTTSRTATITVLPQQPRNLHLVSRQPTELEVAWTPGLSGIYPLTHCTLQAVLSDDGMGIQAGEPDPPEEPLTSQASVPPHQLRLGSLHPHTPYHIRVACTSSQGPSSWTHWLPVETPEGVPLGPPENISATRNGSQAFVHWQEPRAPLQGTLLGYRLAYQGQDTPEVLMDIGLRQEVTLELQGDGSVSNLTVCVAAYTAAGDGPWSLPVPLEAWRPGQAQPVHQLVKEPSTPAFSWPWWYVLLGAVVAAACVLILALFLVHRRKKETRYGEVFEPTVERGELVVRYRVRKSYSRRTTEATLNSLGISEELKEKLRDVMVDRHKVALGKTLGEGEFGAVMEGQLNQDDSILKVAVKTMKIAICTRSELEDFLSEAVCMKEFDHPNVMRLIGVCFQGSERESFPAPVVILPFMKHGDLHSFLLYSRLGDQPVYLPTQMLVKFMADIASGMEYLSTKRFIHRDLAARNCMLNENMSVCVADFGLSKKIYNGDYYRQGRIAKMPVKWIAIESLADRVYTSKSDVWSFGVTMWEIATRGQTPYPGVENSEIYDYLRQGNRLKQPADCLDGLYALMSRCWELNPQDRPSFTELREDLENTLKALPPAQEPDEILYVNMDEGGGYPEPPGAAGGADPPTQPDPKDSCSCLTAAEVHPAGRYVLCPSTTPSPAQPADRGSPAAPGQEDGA
Put plainly: flow cytometry, NIH3T3-hAXL cells.

B1: I 11B7 (antibody, V domains shown)
VH: EVQLQESGPGLVKPSQSLSLTCSVTGYSITSNYWGWIRKFPGDKMEWMGYITYSGSTSYNPSLKSRISITRDTSKNQFFLQLNSVTSEDTATYYCAITTFYYWGQGVMVTVSS
VL: DIQMTQAPSSLPASLGDRVTITCRASQDIGNYLRWFQQKPGKSPRLMISGATNLAAGVPSRFSGSRSGSDYSLTISSLESEDMADYYCLQSKESPWTFGGGTKLELK
notes: rat hybridoma antibody, antagonistic
In the case of B1, in test [1], the binding result is reported as “no binding (tested: 10 µg/ml)”. In addition, in test [2], the FACS shift came to 36.2.

B2: I 10D12 (antibody, V domains shown)
VH: EVQLQESGPGLVKPSQSLSLTCSVTGYSITSNYWGWIRKFPGNKMEWMGYITNSGGTAYNPSLKSRISITRDTSKNQFFLQLNSVIPEDSATYFCSRTPWDWGQGVMVTVSS
VL: DIQMTQAPSSLPASLGDRVTIACRASQDIGNYLRWFQQKPGKSPRLMISGATNLAAGVPSRFSGSRSGSDYSRTISSLESEDMADYYCLQSKESPWTFGGGTKLELK
notes: rat hybridoma antibody, antagonistic; subclass G1
With B2, the binding result in test [1] is on record as “no binding (tested: 10 µg/ml)”. For the same molecule, the FACS shift in test [2] worked out at 37.5.

B3: III 11D5 (antibody, rat IgG2a, V domains shown)
VH: EVQLQESGPGLVKPSQSLSLTCSVTGYSITSNYWGWIRKFPGNKMEWIGHITNSGNTTYNPSLKSRISISRDTSRNQFFLQLNSVTTEDTATYYCAKGAFDYWGQGVMVTVSS
VL: DIQMTQSPSSMSTSLGDRVTITCRASQDIGNYLSWFQQKVGKSPRRMIYGAIKLAVGVPSRFSGSRSGSDYSLTISSLESEDMAIYYCLQYIQFPLTFGSGTKLELK
notes: as for B1
For the molecule B3, the binding result in test [1] is “no binding (tested: 10 µg/ml)”. In addition, in test [2], the FACS shift is 8.9.
